Among the data in paper PMC10184575, “Development of an Anti-canine PD-L1 Antibody and Caninized PD-L1 Mouse Model as Translational Research Tools for the Study of Immunotherapy in Humans” (Cancer Research Communications, 2023) are Kd values, retold here.

The experiment concerns the target T1, 6X His-tagged extracellular domain of canine PD-L1 (canine, UniProt E2RKZ5).
T1 construct: canine PD-L1 (CD274), extracellular domain; also called cPD-L1-His; His-tagged cPD-L1 protein; source: ExpiCHO cell system, purified (Ni-NTA agarose)
As to the kind of experiment: BLI; Octet RED384; His-tagged cPD-L1 loaded on NTA biosensor at 200 nmol/L; 12C10E4 antibody at 50, 100, 200 nmol/L in kinetic buffer. The following applies: both partners purified.

In general, Kd refers to the constant that tells how readily two partners part at equilibrium.

T1 sequence (E2RKZ5 entry or part of it): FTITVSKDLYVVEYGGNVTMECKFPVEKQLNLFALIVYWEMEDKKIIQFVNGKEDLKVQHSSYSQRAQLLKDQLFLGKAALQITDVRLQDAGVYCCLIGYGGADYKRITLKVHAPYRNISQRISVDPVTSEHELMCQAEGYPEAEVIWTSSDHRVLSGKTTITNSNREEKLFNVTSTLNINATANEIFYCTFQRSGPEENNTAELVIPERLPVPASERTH

B1: 12C10E4 chimeric antibody (12C10E4-cIgG; murine variable regions, canine IgG2 and canine kappa constant regions) (antibody, V domains shown)
VH: QVQLKQSGPGLVQPSQSLSITCTISGFSLTSFGVHWVRQSPGKGLEWLGVIWSGGSTDYNAAFTSRLSINKDNSKSQVFFKMNSLQADDTAIYYCARGGGPDWYFDVWGTGTTVTVSS
VL: DIVLTQSPASLAVSLGQRATISCRASESVEYYGTSLMQWYQQKPGQPPKLLIFAASNVKSGVPARFSGSGSGTDFSLNIHPVEEDDIAMYFCQQSGKVPHTFGGGTKLEIK
notes: VH of the mouse hybridoma 12C10E4; canine IgG2 heavy constant chain (called equivalent to human IgG1); VL of the mouse hybridoma 12C10E4; canine kappa light constant chain; also called 12C chimeric antibody; 12C cPD-L1 chimera antibody; source: ExpiCHO-S, transfected, purified (protein A agarose)
In the case of B1, binding was put at a Kd of 8.6 nM.
